Laboratory results published in patent US20160000910A1.

Molecular target: biotinylated Aβ1-28 peptide
Test: ELISA, biotinylated peptide (Anaspec) on streptavidin plate, 10 µg/ml mAb
Conditions: remark: other sources report otherwise

biotinylated Aβ1-28 peptide, sequence (chain, as listed by the source): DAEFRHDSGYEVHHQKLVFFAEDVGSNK

B1: mouse monoclonal antibody ACI-11-Ab-9 (antibody, V domains shown)
VL: QAVVTQESALTTSPGGTVILTCRSSTGAVTTSNYANWVQEKPDHLFTGLIGGTSNRAPGVPVRFSGSLIGDKAALTITGAQTEDDAMYFCALWYSTHYVFGGGTKVTVL
VH: QVQLQQSDAELVKPGASVKISCKVSGYTFTDHTIHWMKQRPEQGLEWIGYIYPRDGSTKYNEKFKGKATLTADKSSSTAYMQLNSLTSEDSAVYFCARDYGYAFDYWGQGTTLTVSS
modifications: here or on the partner: biotinylated (position not given)
Q: For B1, which O.D. after background subtraction (mean) is on record?
A: Its O.D. after background subtraction (mean) is 0.53 O.D.
